{
  "source": "paper PMC7140604",
  "key": {"[1]": {"molecular_target": "Ag85 (antigen 85 complex proteins) on the surface of live Mycobacterium abscessus cells (M. abscessus (endogenous in CIP104536T cells))", "assay": "single-molecule force spectroscopy (AFM); Fn-functionalized gold-coated AFM tip on live M. abscessus R cells adhered to a hydrophobic Petri dish; PBS; maximum force 250 pN, contact time 500 ms, retraction 1 um/s"}, "[2]": {"molecular_target": "Ag85 (antigen 85 complex proteins) on the surface of live Mycobacterium abscessus cells (M. abscessus (endogenous in CIP104536T cells))", "assay": "single-cell force spectroscopy (AFM); single M. abscessus R cell on a polydopamine colloidal probe against Fn coupled to a gold surface; PBS; maximum force 250 pN, contact time 500 ms, approach and retraction 1 um/s"}, "[3]": {"molecular_target": "Ag85 (antigen 85 complex proteins) on the surface of live Mycobacterium abscessus cells (M. abscessus (endogenous in CIP104536T cells))", "assay": "dynamic force spectroscopy (AFM single-molecule force spectroscopy at varied loading rate); Fn tip on live M. abscessus R cells; retraction speeds 0.5, 1, 2.5, 5 and 10 um/s; loading rates 100 to 100,000 pN/s; 13 cells; fit of the Friddle-Noy-de Yoreo model; Kd calculated from Feq and keff (7 pN/nm)"}},
  "note": "pKd: −log10 of the molar value.",
  "data": [
    {"substance": "purified human plasma fibronectin (natural protein)", "values": [
      {"measurement": "adhesion (rupture) force", "setting": "[1]", "value": 75, "unit": "pN"},
      {"measurement": "adhesion frequency (fraction of adhesive force curves), without peptide", "setting": "[1]", "value": 30, "unit": "%"},
      {"measurement": "adhesion force", "setting": "[2]", "value": 77, "unit": "pN"},
      {"measurement": "adhesion frequency (fraction of adhesive force curves), without peptide", "setting": "[2]", "value": 30, "unit": "%"},
      {"measurement": "pKd", "setting": "[3]", "value": 7.02},
      {"measurement": "equilibrium force (Feq)", "setting": "[3]", "value": 34, "unit": "pN"},
      {"measurement": "koff", "setting": "[3]", "value": 33, "unit": "s⁻¹"}
    ]}
  ]
}
